System: K4 kissing-loop RNA reporter
Experiment: apparent KD of K4 kissing-loop reporter; higher = weaker reporter binding
Conditions: Eterna round: R107
Protocol: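 RNA-MaP round R107: designed RNA switches with theophylline, tryptophan, arginine or FMN aptamers are transcribed on-chip within common flanks. They are titrated with a labelled K4 kissing-loop RNA reporter in RNA-MaP buffer (100 mM Tris pH 7.5, 80 mM KCl, 4 mM MgCl2), without ligand or with the indicated ligand. Median apparent KD per design.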

[1] = input ligand: theophylline 20 uM
[2] = input ligand: tryptophan 2.4 mM
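Further: bound reporter read as fluorescence of individual clusters on recovered sequencing chips by microscopy, with normalized cluster intensities fitted with a binding model.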

Sequence: GGUGCUGUCUGUGCCGCCCUCCUCGUCCCUCGAGGACCGGUACGGCCGCCACUCGAGUGAUGUUCGGGUAGCCAUCCCUGCCAGC [BDazzled - #20 Exc. Tryptophan A]
- apparent KD of K4 kissing-loop reporter (input ligand: FMN 200 uM): 0.527 µM
- apparent KD of K4 kissing-loop reporter (input ligand: arginine 13.2 mM): 0.328 µM
- apparent KD of K4 kissing-loop reporter (input ligand: none): 0.431 µM
- apparent KD of K4 kissing-loop reporter [1]: 0.341 µM
- apparent KD of K4 kissing-loop reporter [2]: 0.322 µM

Sequence: GGUGCUGUUUGUGCCGCCUUCCUCGUUCCUCGAGGACCGGUACGGCCGCCACUCGAGUGAUGUUUGGGUAGCGAUCCCUGCUAGU [Bdazzled - #13 Exc. Tryptophan A]
- apparent KD of K4 kissing-loop reporter (input ligand: FMN 200 uM): 0.892 µM
- apparent KD of K4 kissing-loop reporter (input ligand: arginine 13.2 mM): 0.621 µM
- apparent KD of K4 kissing-loop reporter (input ligand: none): 0.963 µM
- apparent KD of K4 kissing-loop reporter [1]: 0.658 µM
- apparent KD of K4 kissing-loop reporter [2]: 0.799 µM

Sequence: GGUUUAUAGGAGGAUACCAGUACGGAUAAAGUACGUUAAUAGUAGAGUGAUGUUCUAAAGUACCCUUGGCAGCUUAGAGUGAGUG [ExTheophylB.M]
- apparent KD of K4 kissing-loop reporter (input ligand: FMN 200 uM): 0.0986 µM
- apparent KD of K4 kissing-loop reporter (input ligand: arginine 13.2 mM): 0.164 µM
- apparent KD of K4 kissing-loop reporter (input ligand: none): 0.136 µM
- apparent KD of K4 kissing-loop reporter [1]: 0.182 µM
- apparent KD of K4 kissing-loop reporter [2]: 0.0943 µM

Sequence: GUAGACGUACCUUCAGUGAUGUUGAAGGAUACCAGAUGUUACCACAUCCCUUGGCAGCCUUGGGAUAACAGUGAGUUGGAAUAUG [Usrite]
- apparent KD of K4 kissing-loop reporter (input ligand: FMN 200 uM): 0.182 µM
- apparent KD of K4 kissing-loop reporter (input ligand: arginine 13.2 mM): 0.137 µM
- apparent KD of K4 kissing-loop reporter (input ligand: none): 0.172 µM
- apparent KD of K4 kissing-loop reporter [1]: 0.156 µM
- apparent KD of K4 kissing-loop reporter [2]: 0.15 µM

Sequence: GUAGAUAGGCUACAUCUCUAGUCUAAAGACUAGGAUAUCAGGAAACUGAGAAGGAGUCUCAUUGGAGUGAUGUUCCAAGAAUAAU [KL-SSFMN-A16]
- apparent KD of K4 kissing-loop reporter (input ligand: FMN 200 uM): 0.1 µM
- apparent KD of K4 kissing-loop reporter (input ligand: arginine 13.2 mM): 0.106 µM
- apparent KD of K4 kissing-loop reporter (input ligand: none): 0.0892 µM
- apparent KD of K4 kissing-loop reporter [1]: 0.109 µM
- apparent KD of K4 kissing-loop reporter [2]: 0.0717 µM

Sequence: GUAGCACUUGAUAGUGAUGUUAUCAAGGGCAAGGAUAUCAUCUCAAUGAGAAGGUGUCCUUGAUAACUGCUACGGGAAUAUCCCA [Omei KL FMN A Exc D v6]
- apparent KD of K4 kissing-loop reporter (input ligand: FMN 200 uM): 0.444 µM
- apparent KD of K4 kissing-loop reporter (input ligand: arginine 13.2 mM): 0.089 µM
- apparent KD of K4 kissing-loop reporter (input ligand: none): 0.0968 µM
- apparent KD of K4 kissing-loop reporter [1]: 0.086 µM
- apparent KD of K4 kissing-loop reporter [2]: 0.102 µM

Sequence: GUAUAUCGAGUGAUGUUCGAAUGCUCCGAAGGAGCGCGGAUAAUCGCAGGUAGGUCGCGGAGCAGUUGCUGAGGAAGCUCAGUAU [Arg A SS t11]
- apparent KD of K4 kissing-loop reporter (input ligand: FMN 200 uM): 0.162 µM
- apparent KD of K4 kissing-loop reporter (input ligand: arginine 13.2 mM): 0.401 µM
- apparent KD of K4 kissing-loop reporter (input ligand: none): 0.211 µM
- apparent KD of K4 kissing-loop reporter [1]: 0.211 µM
- apparent KD of K4 kissing-loop reporter [2]: 0.147 µM

Sequence: GUAUCGCUAGGAGGAUAUUUCAAUUCGCCUAUAAAUGGUGAUACGGAGUGAUGUUCCGAUUUACGGAAAGAAGGCCUAGUGAUAC [FMN B 8]
- apparent KD of K4 kissing-loop reporter (input ligand: FMN 200 uM): 0.146 µM
- apparent KD of K4 kissing-loop reporter (input ligand: arginine 13.2 mM): 0.275 µM
- apparent KD of K4 kissing-loop reporter (input ligand: none): 0.283 µM
- apparent KD of K4 kissing-loop reporter [1]: 0.298 µM
- apparent KD of K4 kissing-loop reporter [2]: 0.282 µM

Sequence: GUAUCGCUAGGAGGAUAUUUCAAUUCGUCAAUAAAUGGUGAUACGGAGUGAUGUUCCGAUUUACGGAAAGAAGGCCUAGUGAUAC [FMN B 7]
- apparent KD of K4 kissing-loop reporter (input ligand: FMN 200 uM): 0.173 µM
- apparent KD of K4 kissing-loop reporter (input ligand: arginine 13.2 mM): 0.265 µM
- apparent KD of K4 kissing-loop reporter (input ligand: none): 0.298 µM
- apparent KD of K4 kissing-loop reporter [1]: 0.287 µM
- apparent KD of K4 kissing-loop reporter [2]: 0.285 µM

Sequence: GUAUCGCUAGGAGGAUAUUUCAUAUAAUAUAUAAAUGGAUAUACGGAGUGAUGUUCCGAUUUACGGAAAGAAGGCCUAGUGAUAC [FMN B 18]
- apparent KD of K4 kissing-loop reporter (input ligand: FMN 200 uM): 0.134 µM
- apparent KD of K4 kissing-loop reporter (input ligand: arginine 13.2 mM): 0.183 µM
- apparent KD of K4 kissing-loop reporter (input ligand: none): 0.214 µM
- apparent KD of K4 kissing-loop reporter [1]: 0.229 µM
- apparent KD of K4 kissing-loop reporter [2]: 0.202 µM

Sequence: GUAUGUGGAAACACGUACUUAUAUCCUAGGCAGGAUAUGCGGAAACGCAGAAGGGCCACCGGCGAGUUUAUCCAGUGAUGUUGGA [Ex FMN A 8]
- apparent KD of K4 kissing-loop reporter (input ligand: FMN 200 uM): 0.251 µM
- apparent KD of K4 kissing-loop reporter (input ligand: arginine 13.2 mM): 0.253 µM
- apparent KD of K4 kissing-loop reporter (input ligand: none): 0.294 µM
- apparent KD of K4 kissing-loop reporter [1]: 0.271 µM
- apparent KD of K4 kissing-loop reporter [2]: 0.245 µM

Sequence: GUCGGCCGCGCGCAAGCGCGGCCGGCCGAUACCAGCGCGCCGGCGCGCCCUUGGCAGCGGCGCCGAGUGAUGUUCGGCCUGACGU [#2 Same State - Theophylline A Attempt #7 (HarryS)]
- apparent KD of K4 kissing-loop reporter (input ligand: FMN 200 uM): 0.71 µM
- apparent KD of K4 kissing-loop reporter (input ligand: arginine 13.2 mM): 0.538 µM
- apparent KD of K4 kissing-loop reporter (input ligand: none): 0.704 µM
- apparent KD of K4 kissing-loop reporter [1]: 0.601 µM
- apparent KD of K4 kissing-loop reporter [2]: 0.917 µM

Sequence: GUCUGCGUCUCGGCCGCCACUCACUAGUGAUGUUAGUAAGGAGCGACUAGAGAAGUCCAGUUAAUGAGGACCGGGAGAAGCUCUU [Exclusion Tryptophan B GF 3]
- apparent KD of K4 kissing-loop reporter (input ligand: FMN 200 uM): 0.122 µM
- apparent KD of K4 kissing-loop reporter (input ligand: arginine 13.2 mM): 0.133 µM
- apparent KD of K4 kissing-loop reporter (input ligand: none): 0.137 µM
- apparent KD of K4 kissing-loop reporter [1]: 0.106 µM
- apparent KD of K4 kissing-loop reporter [2]: 0.117 µM

Sequence: GUCUGUGUACUAGGAUAUGGUUGCAGACAGUCAGGUCGCCUUUUCGGCGGCCAGUGAUGUUGGUGGCCAGAAGGAGUACGUGAAG [Biririge]
- apparent KD of K4 kissing-loop reporter (input ligand: FMN 200 uM): 0.384 µM
- apparent KD of K4 kissing-loop reporter (input ligand: arginine 13.2 mM): 1.58 µM
- apparent KD of K4 kissing-loop reporter (input ligand: none): 1.11 µM
- apparent KD of K4 kissing-loop reporter [1]: 0.395 µM
- apparent KD of K4 kissing-loop reporter [2]: 1.48 µM

Sequence: GUGCGCGGUGCGGCCGCCACUCGGAUGCGAGUGAUGUUCGCGGGACGGACGCAAGUCCGUCAUUCGAGGACCGGGCAUGGCUGUA [#2 Same State - Tryptophan B Attempt #5 (HarryS)]
- apparent KD of K4 kissing-loop reporter (input ligand: FMN 200 uM): 0.336 µM
- apparent KD of K4 kissing-loop reporter (input ligand: arginine 13.2 mM): 0.274 µM
- apparent KD of K4 kissing-loop reporter (input ligand: none): 0.247 µM
- apparent KD of K4 kissing-loop reporter [1]: 0.252 µM
- apparent KD of K4 kissing-loop reporter [2]: 0.169 µM

Sequence: GUGUAACGAGGAAACCUCGUUACACCCUCACGAGGACCGGUACGGCCGCCACUCGAGAGCUCGUGAGGAGUGAUGUUCCUCGUGA
- apparent KD of K4 kissing-loop reporter (input ligand: FMN 200 uM): 0.695 µM
- apparent KD of K4 kissing-loop reporter (input ligand: arginine 13.2 mM): 0.335 µM
- apparent KD of K4 kissing-loop reporter (input ligand: none): 0.441 µM
- apparent KD of K4 kissing-loop reporter [1]: 0.435 µM
- apparent KD of K4 kissing-loop reporter [2]: 0.184 µM

Sequence: GUUAAUAGUAGUGAUGUUACAAUAGUUUGUGAGGAUAUCCCGAAAGGGAGAAGGCACAAACAAAUAGAUUCUCACAAAUAUUUAC [FMN A exclusion]
- apparent KD of K4 kissing-loop reporter (input ligand: FMN 200 uM): 0.191 µM
- apparent KD of K4 kissing-loop reporter (input ligand: arginine 13.2 mM): 0.185 µM
- apparent KD of K4 kissing-loop reporter (input ligand: none): 0.243 µM
- apparent KD of K4 kissing-loop reporter [1]: 0.238 µM
- apparent KD of K4 kissing-loop reporter [2]: 0.146 µM

Sequence: GUUGACAGACUGCAAAACUAGUCAACAGACUAGGAUAUCAGGAAACUGAGAAGGAGUCAAGUUGCAGUGAUGUUGCAAGAAUAAU [KL-SSFMN-A27]
- apparent KD of K4 kissing-loop reporter (input ligand: FMN 200 uM): 0.137 µM
- apparent KD of K4 kissing-loop reporter (input ligand: arginine 13.2 mM): 0.182 µM
- apparent KD of K4 kissing-loop reporter (input ligand: none): 0.173 µM
- apparent KD of K4 kissing-loop reporter [1]: 0.214 µM
- apparent KD of K4 kissing-loop reporter [2]: 0.136 µM

Sequence: GUUGUAUACUGAAGGAGCGAGUAGUGGAAACAUAAACUCAUUGCGAGUGAUGUUCGCAGUACUCAGGUAGGUCGCAGUAAUCGUA [Exclusion Arginine B Gf 10]
- apparent KD of K4 kissing-loop reporter (input ligand: FMN 200 uM): 0.534 µM
- apparent KD of K4 kissing-loop reporter (input ligand: arginine 13.2 mM): 0.315 µM
- apparent KD of K4 kissing-loop reporter (input ligand: none): 0.566 µM
- apparent KD of K4 kissing-loop reporter [1]: 0.453 µM
- apparent KD of K4 kissing-loop reporter [2]: 0.456 µM

Sequence: GUUUGCCGGUCCCGGAGUGAUGUUCCGGAUACCAGCAACUUCCUUUGCCCUUGGCAGCCGUAGCUAUACCGGGUGGCAGCUUCAG [Anresoenus]
- apparent KD of K4 kissing-loop reporter (input ligand: FMN 200 uM): 0.111 µM
- apparent KD of K4 kissing-loop reporter (input ligand: arginine 13.2 mM): 0.0895 µM
- apparent KD of K4 kissing-loop reporter (input ligand: none): 0.104 µM
- apparent KD of K4 kissing-loop reporter [1]: 0.11 µM
- apparent KD of K4 kissing-loop reporter [2]: 0.111 µM

Sequence: GUUUGCCGGUUCCGGAGUGAUGUUCCGGAUACCAGCAACUUCCUUUGCCCUUGGCAGCCGUAGCUAUACCGGAUGGCAGCUUCAG [Arrexean]
- apparent KD of K4 kissing-loop reporter (input ligand: FMN 200 uM): 0.0961 µM
- apparent KD of K4 kissing-loop reporter (input ligand: arginine 13.2 mM): 0.0827 µM
- apparent KD of K4 kissing-loop reporter (input ligand: none): 0.0893 µM
- apparent KD of K4 kissing-loop reporter [1]: 0.0867 µM
- apparent KD of K4 kissing-loop reporter [2]: 0.0954 µM

Source: the supplement of paper PMC9170038
